Test results taken from paper PMC8482478, “N-acetylmannosamine-6-phosphate 2-epimerase uses a novel substrate-assisted mechanism to catalyze amino sugar epimerization” (The Journal of Biological Chemistry, 2021).

Target: the molecule itself
Experiment: AUC; sedimentation velocity, 0.5 mg/ml SaNanE in 20 mM Tris pH 8.0, 150 mM NaCl, 50,000 rpm, 20 °C; c(s) and c(M) models in SEDFIT

B1: N-acetylmannosamine-6-phosphate 2-epimerase (NanE) from Staphylococcus aureus, wildtype (enzyme, S. aureus USA300)
chain: MLPHGLIVSCQALPDEPLHSSFIMSKMALAAYEGGAVGIRANTKEDILAIKETVDLPVIGIVKRDYDHSDVFITATSKEVDELIESQCEVIALDATLQQRPKETLDELVSYIRTHAPNVEIMADIATVEEAKNAARLGFDYIGTTLHGYTSYTQGQLLYQNDFQFLKDVLQSVDAKVIAEGNVITPDMYKRVMDLGVHCSVVGGAITRPKEITKRFVQIMED
notes: N-acetylmannosamine-6-phosphate 2-epimerase (NanE) of S. aureus USA300; also called SaNanE; wildtype SaNanE
stoichiometry N: 2
